Experimental data as given in article PMC7865483.

Target: EE-tagged Pank1β (pantothenate kinase 1β), stably overexpressed in HEK293 cells (UniProt Q8TE04)
Experiment: proximity ligation; in situ PLA (Duolink) on fixed HEK293/Pank1β cells with anti-Pank1 and anti-CoAsy, anti-PPCS or anti-PPCDC antibodies; exponentially growing cells in full medium; for Pank1/CoAsy also after 16 h serum starvation, serum starvation + 500 μM H2O2 for 10 min, and serum starvation + 1 μM insulin for 3 h or 6 h

EE-tagged Pank1β (pantothenate kinase 1β), stably overexpressed in HEK293 cells, sequence (Q8TE04 other isoform, or with tags, fused parts or gaps): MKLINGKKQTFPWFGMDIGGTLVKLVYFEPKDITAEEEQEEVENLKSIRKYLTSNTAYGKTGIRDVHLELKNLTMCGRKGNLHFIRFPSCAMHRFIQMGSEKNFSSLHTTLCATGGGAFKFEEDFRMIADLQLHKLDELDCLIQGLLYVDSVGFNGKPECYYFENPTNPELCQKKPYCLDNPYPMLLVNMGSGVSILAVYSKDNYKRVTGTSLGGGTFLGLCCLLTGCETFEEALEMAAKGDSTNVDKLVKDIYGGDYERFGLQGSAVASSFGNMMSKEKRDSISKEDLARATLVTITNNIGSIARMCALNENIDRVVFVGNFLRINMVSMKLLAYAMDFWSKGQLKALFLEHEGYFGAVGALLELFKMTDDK

fold increase of the PLA signal after serum starvation or serum starvation + H2O2, against control cells: 2 fold
Substance: CoA synthase (CoAsy) (from UniProt Q13057 1-564) (enzyme)
